Target: Raf-1 (UniProt P04049)
Experiment: FLAG IP, GFP-Raf-1 blot
Details: reference: FLAG-MST2 wild type; sites Y81

binding against the reference: stronger
Substance: MST2 (from UniProt Q13188) FLAG-MST2 Y81F

Source: publication PMC3348883
